Data set [1] concerns HeLa Kyoto. The experiment in a line: solubility in G1/S (NP-40 vs SDS abundance) (log2 ratio); higher = more soluble. Conditions: cell cycle stage: G1/S.
For data set [2], the system named is HeLa Kyoto. The experiment in a line: thermal stability score vs G1/S (z-score of summed log2 fold changes over temperatures); higher = more thermally stable than in G1/S.
The subject of data set [3] is HeLa Kyoto. As to the kind of experiment: solubility change mitosis vs G1/S (difference of NP-40 vs SDS log2 ratios) (log2 ratio difference); higher = more soluble in mitosis.
Data set [4] concerns HeLa Kyoto. The experiment in a line: melting temperature (median over replicates), in situ; higher = more thermally stable.
[5] abbreviates: cell cycle stage: early G1 (4.5 h after nocodazole release).
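Throughout, for melting temperature (median over replicates), in situ: HeLa Kyoto cells synchronized by double thymidine or nocodazole block, proteins quantified by TMT10plex mass spectrometry, three independent biological replicates.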
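Throughout, for solubility change mitosis vs G1/S (difference of NP-40 vs SDS log2 ratios): synchronized HeLa Kyoto cells (double thymidine block for G1/S, nocodazole release for mitosis), protein amounts in NP-40 versus SDS lysates quantified by mass spectrometry, three biological replicates.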
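Throughout, for solubility in G1/S (NP-40 vs SDS abundance): HeLa Kyoto cells arrested at G1/S by double thymidine block, proteins quantified by TMT10plex mass spectrometry in mild NP-40 versus SDS extracts, three biological replicates.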
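Throughout, for thermal stability score vs G1/S (z-score of summed log2 fold changes over temperatures): synchronized HeLa Kyoto cells, proteins quantified by TMT10plex mass spectrometry, three biological replicates, mitosis taken 0.5 h after nocodazole release, G1/S directly after double thymidine block.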

With “MAARAGFQSVAPSGGAGASGGAGAAAALGPGGTPGPPVRMGPAPGQGLYRSPMPGAAYPRPGMLPGSRMTPQGPSMGPPGYGGNPSVRPGLAQSGMDQSRKRPAPQQIQQVQQQAVQNRNHNAKKKKMADKILPQRIRELVPESQAYMDLLAFERKLDQTIMRKRLDIQEALKRPIKQKRKLRIFISNTFNPAKSDAEDGEGTVASWELRVEGRLLEDSALSKYDATKQKRKFSSFFKSLVIELDKDLYGPDNHLVEWHRTATTQETDGFQVKRPGDVNVRCTVLLMLDYQPPQFKLDPRLARLLGIHTQTRPVIIQALWQYIKTHKLQDPHEREFVICDKYLQQIFESQRMKFSEIPQRLHALLMPPEPIIINHVISVDPNDQKKTACYDIDVEVDDTLKTQMNSFLLSTASQQEIATLDNKIHETIETINQLKTQREFMLSFARDPQGFINDWLQSQCRDLKTMTDVVGNPEEERRAEFYFQPWAQEAVCRYFYSKVQQRRQELEQALGIRNT [SMARCD1]”, in the data set with HeLa Kyoto [1], the “solubility in G1/S (log2)” value amounted to 0.347. For the same sequence, the results for the thermal stability score in the data set on HeLa Kyoto [2] (setting [5]) and in the data set on HeLa Kyoto [2] (cell cycle stage: mitosis) were 0.481 and 1.5, respectively. The “solubility change mitosis (log2)” value in the data set with HeLa Kyoto [3] was -0.0288. Moreover, the melting temperature worked out at 47.4 °C in the data set with HeLa Kyoto [4] (cell cycle stage: G1/S) and 49.3 °C in the data set on HeLa Kyoto [4] (cell cycle stage: mitosis).
With “MDPNTIIEALRGTMDPALREAAERQLNEAHKSLNFVSTLLQITMSEQLDLPVRQAGVIYLKNMITQYWPDRETAPGDISPYTIPEEDRHCIRENIVEAIIHSPELIRVQLTTCIHHIIKHDYPSRWTAIVDKIGFYLQSDNSACWLGILLCLYQLVKNYEYKKPEERSPLVAAMQHFLPVLKDRFIQLLSDQSDQSVLIQKQIFKIFYALVQYTLPLELINQQNLTEWIEILKTVVNRDVPNETLQVEEDDRPELPWWKCKKWALHILARLFERYGSPGNVSKEYNEFAEVFLKAFAVGVQQVLLKVLYQYKEKQYMAPRVLQQTLNYINQGVSHALTWKNLKPHIQGIIQDVIFPLMCYTDADEELWQEDPYEYIRMKFDVFEDFISPTTAAQTLLFTACSKRKEVLQKTMGFCYQILTEPNADPRKKDGALHMIGSLAEILLKKKIYKDQMEYMLQNHVFPLFSSELGYMRARACWVLHYFCEVKFKSDQNLQTALELTRRCLIDDREMPVKVEAAIALQVLISNQEKAKEYITPFIRPVMQALLHIIRETENDDLTNVIQKMICEYSEEVTPIAVEMTQHLAMTFNQVIQTGPDEEGSDDKAVTAMGILNTIDTLLSVVEDHKEITQQLEGICLQVIGTVLQQHVLEFYEEIFSLAHSLTCQQVSPQMWQLLPLVFEVFQQDGFDYFTDMMPLLHNYVTVDTDTLLSDTKYLEMIYSMCKKVLTGVAGEDAECHAAKLLEVIILQCKGRGIDQCIPLFVEAALERLTREVKTSELRTMCLQVAIAALYYNPHLLLNTLENLRFPNNVEPVTNHFITQWLNDVDCFLGLHDRKMCVLGLCALIDMEQIPQVLNQVSGQILPAFILLFNGLKRAYACHAEHENDSDDDDEAEDDDETEELGSDEDDIDEDGQEYLEILAKQAGEDGDDEDWEEDDAEETALEGYSTIIDDEDNPVDEYQIFKAIFQTIQNRNPVWYQALTHGLNEEQRKQLQDIATLADQRRAAHESKMIEKHGGYKFSAPVVPSSFNFGGPAPGMN [IPO7]”, in the data set with HeLa Kyoto [1], the “solubility in G1/S (log2)” value was -0.0648. Further, the thermal stability score in the data set on HeLa Kyoto [2] (setting [5]) amounted to 1.18; with HeLa Kyoto [2] (cell cycle stage: mitosis), 3.75. For the same sequence, the “solubility change mitosis (log2)” value in the data set on HeLa Kyoto [3] was -0.133. Moreover, the melting temperature with HeLa Kyoto [4] (cell cycle stage: G1/S) came to 52.7 °C; in the data set with HeLa Kyoto [4] (cell cycle stage: mitosis) it was 51.3 °C.
Take “MPNQGEDCYFFFYSTCTKGDSCPFRHCEAAIGNETVCTLWQEGRCFRQVCRFRHMEIDKKRSEIPCYWENQPTGCQKLNCAFHHNRGRYVDGLFLPPSKTVLPTVPESPEEEVKASQLSVQQNKLSVQSNPSPQLRSVMKVESSENVPSPTHPPVVINAADDDEDDDDQFSEEGDETKTPTLQPTPEVHNGLRVTSVRKPAVNIKQGECLNFGIKTLEEIKSKKMKEKSKKQGEGSSGVSSLLLHPEPVPGPEKENVRTVVRTVTLSTKQGEEPLVRLSLTERLGKRKFSAGGDSDPPLKRSLAQRLGKKVEAPETNIDKTPKKAQVSKSLKERLGMSADPDNEDATDKVNKVGEIHVKTLEEILLERASQKRGELQTKLKTEGPSKTDDSTSGARSSSTIRIKTFSEVLAEKKHRQQEAERQKSKKDTTCIKLKIDSEIKKTVVLPPIVASRGQSEEPAGKTKSMQEVHIKTLEEIKLEKALRVQQSSESSTSSPSQHEATPGARRLLRITKRTGMKEEKNLQEGNEVDSQSSIRTEAKEASGETTGVDITKIQVKRCETMREKHMQKQQEREKSVLTPLRGDVASCNTQVAEKPVLTAVPGITRHLTKRLPTKSSQKVEVETSGIGDSLLNVKCAAQTLEKRGKAKPKVNVKPSVVKVVSSPKLAPKRKAVEMHAAVIAAVKPLSSSSVLQEPPAKKAAVAVVPLVSEDKSVTVPEAENPRDSLVLPPTQSSSDSSPPEVSGPSSSQMSMKTRRLSSASTGKPPLSVEDDFEKLIWEISGGKLEAEIDLDPGKDEDDLLLELSEMIDS [ZC3H11A]”: the “solubility in G1/S (log2)” value in the data set on HeLa Kyoto [1] was -0.583. The thermal stability score stood at 2.36 in the data set on HeLa Kyoto [2] (setting [5]) and 7.44 in the data set with HeLa Kyoto [2] (cell cycle stage: mitosis). For the same sequence, the “solubility change mitosis (log2)” value in the data set on HeLa Kyoto [3] stood at 0.559. The results for the melting temperature in the data set with HeLa Kyoto [4] (cell cycle stage: G1/S) and in the data set on HeLa Kyoto [4] (cell cycle stage: mitosis) were 45.8 °C and 48.6 °C, respectively.

The values above are taken from the supplement of paper PMC5998384.
